Tested on: mutant form of α-Gal A expressed in HEK-293 cells
Assay: HEK assay (GLP HEK / Migalastat Amenability Assay): α-Gal A activity in lysates of transiently transfected HEK-293 cells incubated with or without 10 μM migalastat
Assay type: cell-based, human
Conditions: for Absolute increase (% WT) / Relative increase: 10 μM migalastat versus baseline; for Baseline α-Gal A activity (% WT): absence of migalastat; for Baseline α-Gal A activity (% WT) / 10 μM migalastat α-Gal A activity (% WT): percentage of baseline wild-type α-Gal A activity; for 10 μM migalastat α-Gal A activity: incubated 5 days with 10 μM migalastat; for 10 μM migalastat α-Gal A activity (% WT): with 10 μM migalastat, 5 days
Summary of the method: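 Activity reported as 4-MU released (nmol/mg/hr), mean±SEM, from lysates of transiently transfected HEK-293 cells expressing mutant α-Gal A, cultured with or without 10 μM migalastat.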

[1] = lysates of HEK-293 cells transiently transfected with the mutant form, incubated 5 days in absence of migalastat, mean ± SEM
[2] = lysates of HEK-293 cells transiently transfected with the mutant form, mean ± SEM

B1: L300V (protein)
chain: MQLRNPELHLGCALALRFLALVSWDIPGARALDNGLARTPTMGWLHWERFMCNLDCQEEPDSCISEKLFMEMAELMVSEGWKDAGYEYLCIDDCWMAPQRDSEGRLQADPQRFPHGIRQLANYVHSKGLKLGIYADVGNKTCAGFPGSFGYYDIDAQTFADWGVDLLKFDGCYCDSLENLADGYKHMSLALNRTGRSIVYSCEWPLYMWPFQKPNYTEIRQYCNHWRNFADIDDSWKSIKSILDWTSFNQERIVDVAGPGGWNDPDMLVIGNFGLSWNQQVTQMALWAIMAAPLFMSNDVRHISPQAKALLQDKDVIAINQDPLGKQGYQLRQGDNFEVWERPLSGLAWAVAMINRQEIGGPRSYTIAVASLGKGVACNPACFITQLLPVKRKLGFYEWTSRLRSHINPTGTVLLQLENTMQMSLKDLL
- Absolute increase (% WT): 14.0 % WT
- Relative increase: 13.2
- Baseline α-Gal A activity (% WT) (mean ± SEM): 1.3 ± 0.2 % WT
- Baseline α-Gal A activity [1]: 406 ± 48 nmol/mg/h
- 10 μM migalastat α-Gal A activity [2]: 5354 ± 203 nmol/mg/h
- 10 μM migalastat α-Gal A activity (% WT) (mean ± SEM): 15.3 ± 0.6 % WT

B2: H302D (protein)
chain: MQLRNPELHLGCALALRFLALVSWDIPGARALDNGLARTPTMGWLHWERFMCNLDCQEEPDSCISEKLFMEMAELMVSEGWKDAGYEYLCIDDCWMAPQRDSEGRLQADPQRFPHGIRQLANYVHSKGLKLGIYADVGNKTCAGFPGSFGYYDIDAQTFADWGVDLLKFDGCYCDSLENLADGYKHMSLALNRTGRSIVYSCEWPLYMWPFQKPNYTEIRQYCNHWRNFADIDDSWKSIKSILDWTSFNQERIVDVAGPGGWNDPDMLVIGNFGLSWNQQVTQMALWAIMAAPLFMSNDLRDISPQAKALLQDKDVIAINQDPLGKQGYQLRQGDNFEVWERPLSGLAWAVAMINRQEIGGPRSYTIAVASLGKGVACNPACFITQLLPVKRKLGFYEWTSRLRSHINPTGTVLLQLENTMQMSLKDLL
- Absolute increase (% WT): 25.8 % WT
- Relative increase: 1.3
- Baseline α-Gal A activity (% WT) (mean ± SEM): 95.1 ± 5.8 % WT
- Baseline α-Gal A activity [1]: 32677 ± 1437 nmol/mg/h
- 10 μM migalastat α-Gal A activity [2]: 41716 ± 1847 nmol/mg/h
- 10 μM migalastat α-Gal A activity (% WT) (mean ± SEM): 120.8 ± 6.6 % WT

B3: H302L (protein)
chain: MQLRNPELHLGCALALRFLALVSWDIPGARALDNGLARTPTMGWLHWERFMCNLDCQEEPDSCISEKLFMEMAELMVSEGWKDAGYEYLCIDDCWMAPQRDSEGRLQADPQRFPHGIRQLANYVHSKGLKLGIYADVGNKTCAGFPGSFGYYDIDAQTFADWGVDLLKFDGCYCDSLENLADGYKHMSLALNRTGRSIVYSCEWPLYMWPFQKPNYTEIRQYCNHWRNFADIDDSWKSIKSILDWTSFNQERIVDVAGPGGWNDPDMLVIGNFGLSWNQQVTQMALWAIMAAPLFMSNDLRLISPQAKALLQDKDVIAINQDPLGKQGYQLRQGDNFEVWERPLSGLAWAVAMINRQEIGGPRSYTIAVASLGKGVACNPACFITQLLPVKRKLGFYEWTSRLRSHINPTGTVLLQLENTMQMSLKDLL
- Absolute increase (% WT): 24.6 % WT
- Relative increase: 1.4
- Baseline α-Gal A activity (% WT) (mean ± SEM): 60.7 ± 5.1 % WT
- Baseline α-Gal A activity [1]: 24188 ± 1797 nmol/mg/h
- 10 μM migalastat α-Gal A activity [2]: 34251 ± 1760 nmol/mg/h
- 10 μM migalastat α-Gal A activity (% WT) (mean ± SEM): 85.3 ± 4.7 % WT

B4: H302N (protein)
chain: MQLRNPELHLGCALALRFLALVSWDIPGARALDNGLARTPTMGWLHWERFMCNLDCQEEPDSCISEKLFMEMAELMVSEGWKDAGYEYLCIDDCWMAPQRDSEGRLQADPQRFPHGIRQLANYVHSKGLKLGIYADVGNKTCAGFPGSFGYYDIDAQTFADWGVDLLKFDGCYCDSLENLADGYKHMSLALNRTGRSIVYSCEWPLYMWPFQKPNYTEIRQYCNHWRNFADIDDSWKSIKSILDWTSFNQERIVDVAGPGGWNDPDMLVIGNFGLSWNQQVTQMALWAIMAAPLFMSNDLRNISPQAKALLQDKDVIAINQDPLGKQGYQLRQGDNFEVWERPLSGLAWAVAMINRQEIGGPRSYTIAVASLGKGVACNPACFITQLLPVKRKLGFYEWTSRLRSHINPTGTVLLQLENTMQMSLKDLL
- Absolute increase (% WT): 30.2 % WT
- Relative increase: 1.3
- Baseline α-Gal A activity (% WT) (mean ± SEM): 91.2 ± 4.3 % WT
- Baseline α-Gal A activity [1]: 31958 ± 1777 nmol/mg/h
- 10 μM migalastat α-Gal A activity [2]: 42296 ± 2028 nmol/mg/h
- 10 μM migalastat α-Gal A activity (% WT) (mean ± SEM): 121.4 ± 6.2 % WT

B5: H302Y (protein)
chain: MQLRNPELHLGCALALRFLALVSWDIPGARALDNGLARTPTMGWLHWERFMCNLDCQEEPDSCISEKLFMEMAELMVSEGWKDAGYEYLCIDDCWMAPQRDSEGRLQADPQRFPHGIRQLANYVHSKGLKLGIYADVGNKTCAGFPGSFGYYDIDAQTFADWGVDLLKFDGCYCDSLENLADGYKHMSLALNRTGRSIVYSCEWPLYMWPFQKPNYTEIRQYCNHWRNFADIDDSWKSIKSILDWTSFNQERIVDVAGPGGWNDPDMLVIGNFGLSWNQQVTQMALWAIMAAPLFMSNDLRYISPQAKALLQDKDVIAINQDPLGKQGYQLRQGDNFEVWERPLSGLAWAVAMINRQEIGGPRSYTIAVASLGKGVACNPACFITQLLPVKRKLGFYEWTSRLRSHINPTGTVLLQLENTMQMSLKDLL
- Absolute increase (% WT): 25.3 % WT
- Relative increase: 1.4
- Baseline α-Gal A activity (% WT) (mean ± SEM): 59 ± 3.5 % WT
- Baseline α-Gal A activity [1]: 22554 ± 1372 nmol/mg/h
- 10 μM migalastat α-Gal A activity [2]: 31688 ± 1241 nmol/mg/h
- 10 μM migalastat α-Gal A activity (% WT) (mean ± SEM): 84.2 ± 5.2 % WT

B6: I303S (protein)
chain: MQLRNPELHLGCALALRFLALVSWDIPGARALDNGLARTPTMGWLHWERFMCNLDCQEEPDSCISEKLFMEMAELMVSEGWKDAGYEYLCIDDCWMAPQRDSEGRLQADPQRFPHGIRQLANYVHSKGLKLGIYADVGNKTCAGFPGSFGYYDIDAQTFADWGVDLLKFDGCYCDSLENLADGYKHMSLALNRTGRSIVYSCEWPLYMWPFQKPNYTEIRQYCNHWRNFADIDDSWKSIKSILDWTSFNQERIVDVAGPGGWNDPDMLVIGNFGLSWNQQVTQMALWAIMAAPLFMSNDLRHSSPQAKALLQDKDVIAINQDPLGKQGYQLRQGDNFEVWERPLSGLAWAVAMINRQEIGGPRSYTIAVASLGKGVACNPACFITQLLPVKRKLGFYEWTSRLRSHINPTGTVLLQLENTMQMSLKDLL
- Absolute increase (% WT): 3.8 % WT
- Baseline α-Gal A activity (nmol/mg/hr) [1]: BLD (“BLD” indicates that the mean α-Gal A activity was below the limit of detection (<142 nmol/mg/hr))
- 10 μM migalastat α-Gal A activity [2]: 1496 ± 117 nmol/mg/h
- 10 μM migalastat α-Gal A activity (% WT) (mean ± SEM): 3.8 ± 0.3 % WT

B7: S304I (protein)
chain: MQLRNPELHLGCALALRFLALVSWDIPGARALDNGLARTPTMGWLHWERFMCNLDCQEEPDSCISEKLFMEMAELMVSEGWKDAGYEYLCIDDCWMAPQRDSEGRLQADPQRFPHGIRQLANYVHSKGLKLGIYADVGNKTCAGFPGSFGYYDIDAQTFADWGVDLLKFDGCYCDSLENLADGYKHMSLALNRTGRSIVYSCEWPLYMWPFQKPNYTEIRQYCNHWRNFADIDDSWKSIKSILDWTSFNQERIVDVAGPGGWNDPDMLVIGNFGLSWNQQVTQMALWAIMAAPLFMSNDLRHIIPQAKALLQDKDVIAINQDPLGKQGYQLRQGDNFEVWERPLSGLAWAVAMINRQEIGGPRSYTIAVASLGKGVACNPACFITQLLPVKRKLGFYEWTSRLRSHINPTGTVLLQLENTMQMSLKDLL
- Absolute increase (% WT): 13.9 % WT
- Relative increase: 1.5
- Baseline α-Gal A activity (% WT) (mean ± SEM): 30.6 ± 1.4 % WT
- Baseline α-Gal A activity [1]: 11675 ± 939 nmol/mg/h
- 10 μM migalastat α-Gal A activity [2]: 17257 ± 1837 nmol/mg/h
- 10 μM migalastat α-Gal A activity (% WT) (mean ± SEM): 44.6 ± 2.4 % WT

B8: Q306E (protein)
chain: MQLRNPELHLGCALALRFLALVSWDIPGARALDNGLARTPTMGWLHWERFMCNLDCQEEPDSCISEKLFMEMAELMVSEGWKDAGYEYLCIDDCWMAPQRDSEGRLQADPQRFPHGIRQLANYVHSKGLKLGIYADVGNKTCAGFPGSFGYYDIDAQTFADWGVDLLKFDGCYCDSLENLADGYKHMSLALNRTGRSIVYSCEWPLYMWPFQKPNYTEIRQYCNHWRNFADIDDSWKSIKSILDWTSFNQERIVDVAGPGGWNDPDMLVIGNFGLSWNQQVTQMALWAIMAAPLFMSNDLRHISPEAKALLQDKDVIAINQDPLGKQGYQLRQGDNFEVWERPLSGLAWAVAMINRQEIGGPRSYTIAVASLGKGVACNPACFITQLLPVKRKLGFYEWTSRLRSHINPTGTVLLQLENTMQMSLKDLL
- Absolute increase (% WT): 19.7 % WT
- Relative increase: 1.2
- Baseline α-Gal A activity (% WT) (mean ± SEM): 82 ± 2.8 % WT
- Baseline α-Gal A activity [1]: 31745 ± 2212 nmol/mg/h
- 10 μM migalastat α-Gal A activity [2]: 39019 ± 2405 nmol/mg/h
- 10 μM migalastat α-Gal A activity (% WT) (mean ± SEM): 101.7 ± 4.2 % WT

B9: Q306L (protein)
chain: MQLRNPELHLGCALALRFLALVSWDIPGARALDNGLARTPTMGWLHWERFMCNLDCQEEPDSCISEKLFMEMAELMVSEGWKDAGYEYLCIDDCWMAPQRDSEGRLQADPQRFPHGIRQLANYVHSKGLKLGIYADVGNKTCAGFPGSFGYYDIDAQTFADWGVDLLKFDGCYCDSLENLADGYKHMSLALNRTGRSIVYSCEWPLYMWPFQKPNYTEIRQYCNHWRNFADIDDSWKSIKSILDWTSFNQERIVDVAGPGGWNDPDMLVIGNFGLSWNQQVTQMALWAIMAAPLFMSNDLRHISPLAKALLQDKDVIAINQDPLGKQGYQLRQGDNFEVWERPLSGLAWAVAMINRQEIGGPRSYTIAVASLGKGVACNPACFITQLLPVKRKLGFYEWTSRLRSHINPTGTVLLQLENTMQMSLKDLL
- Absolute increase (% WT): 19.6 % WT
- Relative increase: 1.3
- Baseline α-Gal A activity (% WT) (mean ± SEM): 56.9 ± 4 % WT
- Baseline α-Gal A activity [1]: 19792 ± 1899 nmol/mg/h
- 10 μM migalastat α-Gal A activity [2]: 26515 ± 1960 nmol/mg/h
- 10 μM migalastat α-Gal A activity (% WT) (mean ± SEM): 76.4 ± 3.4 % WT

— patent US11833164B2, “Methods of treating Fabry disease in patients having a mutation in the GLA gene” (Amicus Therapeutics, Inc., priority 2019, dated 2023)
